Data as given in PMC11266248, “Production, purification, and quality assessment of borrelial proteins CspZ from Borrelia burgdorferi and FhbA from Borrelia hermsii” (Applied Microbiology and Biotechnology, 2024).

Target: T1, purified human complement factor H from human plasma/serum (human, UniProt P08603 19-1231)
T1 construct: human complement factor H, serum glycoprotein of 20 SCR domains (NCBI gene number 3075); also called FH; Human purified FH; source: bought: Sigma/Merck C5813 (batch SLCP3577), purified from human plasma; provided by Prof; Clark
Test: SPR; Biacore T100, CM5 chip; FH (750 RU), rFHL-1 or rFH15-20 (200 RU) amine-coupled as ligands; CspZ or FhbA as analytes; PBS with 0.05% Tween20, 25 °C, 30 µl/min; single-cycle and multiple-cycle kinetics, Langmuir 1:1 model; in duplicate
Details: both partners purified

T1 sequence (P08603 19-1231): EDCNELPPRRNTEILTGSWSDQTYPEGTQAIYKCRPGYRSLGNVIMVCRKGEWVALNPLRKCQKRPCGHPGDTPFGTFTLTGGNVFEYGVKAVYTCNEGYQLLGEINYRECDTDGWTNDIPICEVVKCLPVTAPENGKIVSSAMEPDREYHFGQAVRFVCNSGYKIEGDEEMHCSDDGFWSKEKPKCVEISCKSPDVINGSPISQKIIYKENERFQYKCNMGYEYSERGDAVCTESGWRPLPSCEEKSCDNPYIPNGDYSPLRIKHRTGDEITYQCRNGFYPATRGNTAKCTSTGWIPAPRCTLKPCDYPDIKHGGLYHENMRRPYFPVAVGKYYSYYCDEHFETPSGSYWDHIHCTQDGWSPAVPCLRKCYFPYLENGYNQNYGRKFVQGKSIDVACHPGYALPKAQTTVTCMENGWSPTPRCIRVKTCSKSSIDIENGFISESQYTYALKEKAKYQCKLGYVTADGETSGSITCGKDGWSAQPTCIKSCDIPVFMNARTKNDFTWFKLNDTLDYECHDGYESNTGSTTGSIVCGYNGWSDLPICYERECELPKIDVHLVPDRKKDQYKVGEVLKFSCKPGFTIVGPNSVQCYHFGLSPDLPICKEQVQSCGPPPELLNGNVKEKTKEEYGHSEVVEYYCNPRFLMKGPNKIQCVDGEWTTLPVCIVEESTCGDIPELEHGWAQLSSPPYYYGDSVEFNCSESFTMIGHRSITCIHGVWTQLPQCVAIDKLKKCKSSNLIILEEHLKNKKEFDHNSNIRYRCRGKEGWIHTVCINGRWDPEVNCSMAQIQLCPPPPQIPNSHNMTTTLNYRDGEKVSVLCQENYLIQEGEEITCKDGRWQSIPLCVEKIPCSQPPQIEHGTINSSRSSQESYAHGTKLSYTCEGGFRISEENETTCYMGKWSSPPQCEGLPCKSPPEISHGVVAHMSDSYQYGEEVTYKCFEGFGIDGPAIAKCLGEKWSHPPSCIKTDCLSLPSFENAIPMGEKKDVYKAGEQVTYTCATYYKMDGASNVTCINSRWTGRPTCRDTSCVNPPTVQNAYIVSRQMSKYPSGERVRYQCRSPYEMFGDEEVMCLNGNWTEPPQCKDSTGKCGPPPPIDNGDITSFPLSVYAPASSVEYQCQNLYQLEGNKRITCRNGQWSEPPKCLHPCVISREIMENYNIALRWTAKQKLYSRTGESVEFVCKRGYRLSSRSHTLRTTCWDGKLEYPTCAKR

B1: CspZ from Borrelia burgdorferi sensu stricto (complement regulator-acquiring surface protein 2) (natural protein)
chain: DVSRLNQRNINELKIFVEKAKYYSIKLDAIYNECTGAYNDIMTYSEGTFSDQSKVNQAISIFKKDNKIVNKFKELEKIIEEYKPMFLSKLIDDFAIELDQAVDNDVSNARHVADSYKKLRKSVVLAYIESFDVISSKFVDSKFVEASKKFVNKAKEFVEENDLIALECIVKTIGDMVNDREINSRSRYNNFYKKEADFLGAAVELEGAYKAIKQTLL
notes: CspZ (BbCRASP-2/BBH06), surface lipoprotein of Borrelia burgdorferi sensu stricto (NCBI txid139), encoded by cspZ on lp28-3; theoretical mass of the tagged protein 27.5 kDa, measured mass fits the predicted value without the N-terminal methionine; Two plasmids coding for N-terminally His6-tagged CspZ are named (pET-45(+) from Prof. Marconi, pETM-11 from Dr. Brangulis); also called BbCRASP-2; …
In the case of B1, the Kd is reported as 0.209 ± 0.141 nM, the koff is reported as 5.31e-05 s⁻¹ and the kon is reported as 255000 M⁻¹ s⁻¹.
